Molecular target: Recombinant rat SNX27 PDZ domain (residues 38-135) (rat) (UniProt Q8K4V4)
Assay: ITC

**Q.** Which Kd does the source give for “GluN2A C-terminal peptide, S1459A phospho-deficient mutant” here?
**A.** The Kd was 49 µM.

**Q.** How did the Kd turn out when “GluN2A C-terminal peptide, S1459E phospho-mimetic mutant” was run?
**A.** Its Kd is 25 µM.

**Q.** GluN2A C-terminal peptide, wild type was tested. Which Kd did it give?
**A.** The Kd was 46 µM.

**Q.** With “Phosphorylated GluN2A C-terminal peptide (phospho-Ser-1459)” as the substance, how does the Kd read?
**A.** Its Kd is 14 µM.

Source: paper PMC8313361
